Data set [1] has as its system F cells. Kind of data set: Collagen gel contraction assay of F cells expressing αPDGFR mutants. The format is cell-based, mouse. Particulars: PDGF-BB (50 ng/ml), 48 hours. Here is the method: The contraction assay was based on a previously described reference, Skuta, G. et al. (1999) J. Biol. Chem. 274:30163, with the following modifications. Fα cells were suspended in 1.5 mg/ml of neutralized collagen I (Cohesion vitrogen 100, Palo Alto, Calif.) at a density of 10^6 cells/ml, and were transferred into the 24-well plate (Falcon, Franklyn Lakes, N.J.) that had been preincubated with phosphate-buffer saline (PBS) with 5 mg/ml of bovine serum albumin (BSA) overnight. The gel was solidified by incubating at 37° C. for 90 minutes, and then the well was flooded with DMEM+5 mg/ml of BSA supplemented with an amount of vitreous such that the final concentration of vitreous in the culture medium was 1, 5 or 20%. The gels were incubated at 37° C. with 5% CO2. The initial gel diameter was 15 mm. The media was replaced every 24 hours and the gel diameter was measured after 48 hours. The extent of contraction was calculated by subtracting the diameter of the well at 48 hours from the initial diameter (15 mm). Each experimental condition was assayed in triplicate, and at least three independent experiments were performed. Unpaired t-test was performed to detect statistic difference in contraction assay.
To determine the signaling pathways that drive contraction, cells expressing the αPDGFR mutants were subjected to the collagen gel contraction assay described above. Accordingly, F cells expressing the indicated αPDGFRs were subjected to the collagen gel assay in the presence of buffer, PDGF-BB (50 ng/ml), TGFβ1 (1 ng/ml), or FBS (10%). The data presented are the mean±standard deviation measured at the 48 hours time point. Each experimental condition was assayed in triplicate, and at least 3 independent experiments were performed.

Data set [2] relates to αPDGFR. Kind of data set: Ligand-dependent tyrosine phosphorylation of αPDGFR mutants in F cells. The format is cell-based, human. Particulars: 50 ng/ml PDGF-BB, 5 minutes. The procedure:
(§1) The ability of the αPDGFR mutants to undergo ligand dependent tyrosine phosphorylation and to associate with signaling enzymes was then tested. F cells expressing various αPDGFR mutants were grown to subconfluence and serum starved overnight. Cells were either left resting (−) or stimulated with 50 ng/ml PDGF-BB (+) for 5 minutes, and lysed. The αPDGFR was immunoprecipitated with αPDGFR antibody, as described above, and the resulting immunoprecipitates were resolved by 7.5% SDS-PAGE and transferred onto Immobilon. The segment of the blot containing the αPDGFR was first blotted with anti-phosphotyrosine antibodies, then stripped and reprobed with an anti-αPDGFR antibody. Portions of the membrane that contained the proteins of the appropriate molecular mass were immunoblotted for PLCγ, the regulatory subunit of PI3K (p85), or SHP-2. Crude rabbit anti-p85 antibody is from Dr. A. Toker (Beth Israel Hospital/Harvard Medical School, Boston, Mass.). The monoclonal antibodies against PLCγ and SHP-2 were purchased from Upstate Biotechnology Inc.

Data set [3] relates to SHP-2. Kind of data set: Co-immunoprecipitation of SHP-2 with αPDGFR mutants in F cells. In kind it is cell-based, mouse. As to conditions: 50 ng/ml PDGF-BB, 5 minutes. The procedure:
as §1

The subject of data set [4] is PI3K (p85). The data set can be described thus: Co-immunoprecipitation of the regulatory subunit of PI3K (p85) with αPDGFR mutants in F cells. The format is cell-based, mouse. As to conditions: 50 ng/ml PDGF-BB, 5 minutes. The procedure: as §1
Data set [5] concerns rabbit eyes. Kind of data set: Rabbit PVR model: F cells expressing αPDGFR mutants injected into the vitreous. The format is in vivo. As to conditions: for potential to induce PVR (PVR score): up to 28 days after the surgery. Here is the method: PVR was induced in the rabbit eyes as previously described (Andrews, A. et al. (1999) Invest. Ophthalmol. Vis. Sci. 40:2683 and Nakagawa, M. et al. (1995) Invest. Ophthalmol. Vis. Sci. 36:2388). Briefly, gas vitrectomy was performed by injecting 0.4 ml of expanding perfluoropropane gas (C3F8) into the vitreous cavity 4 mm posterior to the corneal limbus under anesthetical condition. Three days later, the rabbits were anesthetized and the pupils were dilated. 0.1 ml DMEM containing 1×10^5 of RCFs expressing empty vector or αPDGFR mutant were injected into the vitreous cavity together with 0.1 ml of PRP using 30 G needle. Ten rabbits underwent surgery for each cell population expressing the empty vector or the truncated, E587K, T665M, D818N, or V859M αPDGFR mutants. One rabbit in the D818N group died just after the surgery, therefore the total number is 9 for this group. The retinal status was evaluated with an indirect ophthalmoscope fitted with a +30 D fundus lens at 1, 4, 7, 14, 21, and 28 days after the surgery. The PVR was graded from 0 through 5 according to the Fastenberg score. Fastenberg, D. M. et al. (1982) Am. J. Ophthalmol. 93:565. The grading is as follows: 0; no abnormality, 1; vitreous strand, 2; traction of the retina, 3; partial retinal detachment (less than 2 quadrant), 4; extended (more than 2 quadrant) but not total retinal detachment, 5; total retinal detachment. All surgeries were performed under aseptic conditions and pursuant to the regulation of the ARVO Statement for the Use of Animals in Ophthalmic and Vision Research. Only the left eye of each rabbit was used for the experiments.
An important component of PVR is the traction force that is generated when cells of the epiretinal membrane contract. To test if the signaling enzymes that are required for contraction in the in vitro assays also participate in PVR, the cells expressing the various αPDGFR mutants, described in the previous Examples, were assayed in a rabbit PVR model, described above. In this model, rabbits first undergo gas vitrectomy, and then cells are coinjected with […]. The formation of an epiretinal membrane and retinal detachment is observed in living animals over 28 days.
Briefly, PVR was induced by introducing F cells expressing the indicated αPDGFR into the vitreous of the rabbit eyes. The PVR score was evaluated up to 28 days after the surgery according to the classification described above. The mean value and standard error of the scores in a group were indicated. Each group contained 9 or 10 rabbits; the response to parental F cells was previously reported (Andrews et al., supra), and was included here for comparison purposes.

For data set [6], the system named is αPDGFR. As to conditions: cited from earlier work.
The test system of data set [7] is PLCγ. The data set can be described thus: Co-immunoprecipitation of PLCγ with αPDGFR mutants in F cells. As to conditions: 50 ng/ml PDGF-BB, 5 minutes. The format is cell-based, mouse. Here is the method:
as §1

The test system of data set [8] is PI3K. The data set can be described thus: In vitro PI3K activity assay of αPDGFR immunoprecipitates. The format is biochemical, mouse. Particulars: immunoprecipitates of F cells ± 50 ng/ml PDGF-BB. The procedure: To measure the PI3K activity that coprecipitated with the PDGFRs, the receptor immunoprecipitates were subjected to an in vitro PI3K kinase assay. Aliquots of the immunoprecipitates used in FIG. 10B were subjected to a PI3K activity assay. This assay detects PI3K that has co-precipitated with the αPDGFR. The PI3K assay was performed as previously described. Kazlauskas, A. et al. (1990) Embo. J. 9:3279. Briefly, immunoprecipitated αPDGFR from approximately 5×10^5 cells were incubated with phosphatidyl inositol in the presence of [^32P]-γATP. The reactions were terminated and the phospholipids were extracted and purified by chromatography. The radioactive product of the reaction (phosphoinositide 3 phosphate) was detected by autoradiography.

For data set [9], the system named is GST-PLCγ. The data set can be described thus: In vitro kinase assay of immunoprecipitated mutant αPDGFRs with exogenous substrate. In kind it is biochemical. As to conditions: 292 immunoprecipitates, [32P]-γ ATP, 30° C., 5 min. Here is the method:
Mutant αPDGFRs were selectively immunoprecipitated with the 292 antibody, and samples representing 2×10^5 cells from 292 antibodies were subjected to an in vitro kinase assay. Immunoprecipitates were preincubated with 2 μg of GST protein for 10 min at 0° C., then 2 μg of Glutathione S-transferase fusion phospholipase C-gamma (GST-PLCγ, an exogenous substrate, 10 μCi of γ-[^32P] ATP (DuPont NEN Research Products, Boston, Mass.), and universal kinase buffer (UKB; 20 mM Pipes, pH 7.0, 10 mM MnCl2, 20 μg/ml aprotinin) were added. The samples were incubated at 30° C. for 5 min. The proteins were separated by 7.5% sodium dodecyl sulfate-polyacrylamide gel electrophoresis (SDS-PAGE), the gel was dried, and the radiolabeled protein was detected by autoradiography.

The subject of data set [10] is Src family kinases. Particulars: cited from earlier work.

Entries after “also recorded” stand apart in the source; their conditions may differ.

Regarding “R627: αPDGFR mutant, Lys to Arg substitution at 627, kinase inactive”, the PDGF-dependent contraction entry in data set [1] is “no contraction”. The “PDGF-dependent tyrosine phosphorylation of the receptor” value in data set [2] is on record as “not phosphorylated in response to PDGF”. For the same molecule, in data set [3], the “recruitment of SHP-2 (Properties)” value was “failed to recruit any of these signaling enzymes”. In data set [4], the “recruitment of PI3K / p85 (Properties)” value is on record as “failed to recruit any of these signaling enzymes”. Also, the “potential to induce PVR (PVR score)” value in data set [5] is reported as “dramatically less able to cause the disease”. Besides, the “kinase activity of the receptor (Properties)” value in data set [6] is “Kinase inactive”. Also, in [7], the “recruitment or activation of PLCγ (Properties)” value is on record as “failed to recruit any of these signaling enzymes”.
Regarding “F31/42: αPDGFR mutant, Tyr to Phe substitution at 731 and 742”, the PDGF-dependent contraction result in data set [1] is “did not respond”. For the same molecule, in data set [4], the “recruitment of PI3K / p85 (Properties)” value is “failed to efficiently associate; also recorded: Fails to recruit PI3K”. Moreover, in data set [8], the “PI3K activity coprecipitating with the receptor” value was “did not detectably coprecipitate”.
For “WT αPDGFR: wild type human αPDGFR, SEQ ID NO: 2, expressed in F cells (Fα cells)”, in [1], the PDGF-dependent contraction entry was “contracted”. In addition, the “recruitment of SHP-2 (Properties)” value in data set [3] was “coprecipitated”. In data set [9], the “kinase activity towards exogenous substrate GST-PLCγ” value is on record as “phosphorylated the exogenous substrate”. In addition, the “recruitment of PI3K / p85 (Properties)” value in data set [4] is recorded as “coprecipitated”. The “time until PVR after injection of cells” value in [5] (rabbit, in vivo) is given as 2-3 weeks. Besides, the “PI3K activity coprecipitating with the receptor” value in data set [8] is reported as “coprecipitated”. In data set [7], the “recruitment or activation of PLCγ (Properties)” value was “coprecipitated”.

B1: F7: αPDGFR mutant, Tyr to Phe substitution at 572, 574, 720, 731, 742, 988, and 1018 (protein, UniProt P16234 24-1089, looked up, variant Y572F Y574F Y720F Y731F Y742F Y988F Y1018F)
Platelet-derived growth …: QLSLPSILPNENEKVVQLNSSFSLRCFGESEVSWQYPMSEEESSDVEIRNEENNSGLFVTVLEVSSASAAHTGLYTCYYNHTQTEENELEGRHIYIYVPDPDVAFVPLGMTDYLVIVEDDDSAIIPCRTTDPETPVTLHNSEGVVPASYDSRQGFNGTFTVGPYICEATVKGKKFQTIPFNVYALKATSELDLEMEALKTVYKSGETIVVTCAVFNNEVVDLQWTYPGEVKGKGITMLEEIKVPSIKLVYTLTVPEATVKDSGDYECAARQATREVKEMKKVTISVHEKGFIEIKPTFSQLEAVNLHEVKHFVVEVRAYPPPRISWLKNNLTLIENLTEITTDVEKIQEIRYRSKLKLIRAKEEDSGHYTIVAQNEDAVKSYTFELLTQVPSSILDLVDDHHGSTGGQTVRCTAEGTPLPDIEWMICKDIKKCNNETSWTILANNVSNIITEIHSRDRSTVEGRVTFAKVEETIAVRCLAKNLLGAENRELKLVAPTLRSELTVAAAVLVLLVIVIISLIVLVVIWKQKPRYEIRWRVIESISPDGHEFIFVDPMQLPYDSRWEFPRDGLVLGRVLGSGAFGKVVEGTAYGLSRSQPVMKVAVKMLKPTARSSEKQALMSELKIMTHLGPHLNIVNLLGACTKSGPIYIITEYCFYGDLVNYLHKNRDSFLSHHPEKPKKELDIFGLNPADESTRSFVILSFENNGDFMDMKQADTTQFVPMLERKEVSKYSDIQRSLYDRPASYKKKSMLDSEVKNLLSDDNSEGLTLLDLLSFTYQVARGMEFLASKNCVHRDLAARNVLLAQGKIVKICDFGLARDIMHDSNYVSKGSTFLPVKWMAPESIFDNLYTTLSDVWSYGILLWEIFSLGGTPYPGMMVDSTFYNKIKSGYRMAKPDHATSEVYEIMVKCWNSEPEKRPSFYHLSEIVENLLPGQYKKSYEKIHLDFLKSDHPAVARMRVDSDNAFIGVTYKNEEDKLKDWEGGLDEQRLSADSGFIIPLPDIDPVPEEEDLGKRNRHSSQTSEESAIETGSSSSTFIKREDETIEDIDMMDDIGIDSSDLVEDSFL
For B1, in data set [1], the PDGF-dependent contraction result is “no contraction”. In data set [2], the “PDGF-dependent tyrosine phosphorylation of the receptor” value is on record as “undergoes modest tyrosine phosphorylation”. Moreover, the “recruitment of SHP-2 (Properties)” value in data set [3] is reported as “failed to recruit any of these signaling enzymes; also recorded: Fails to recruit”. The “recruitment of PI3K / p85 (Properties)” value in [4] is recorded as “failed to recruit any of these signaling enzymes; also recorded: Fails to recruit”. In data set [5], the “potential to induce PVR (PVR score)” value is reported as “dramatically less able to cause the disease”. Further, the “kinase activity of the receptor (Properties)” value in data set [6] is on record as “kinase active”. Besides, the “recruitment or activation of Src family kinases (Properties)” value in data set [10] is given as “Fails to recruit”. Also, the “recruitment or activation of PLCγ (Properties)” value in data set [7] is on record as “failed to recruit any of these signaling enzymes; also recorded: Fails to recruit”.
